From article PMC7081424 (ACS Omega, 2020)
Square brackets hold non-standard residues; d marks the D form. Primed or numbered codes have the meaning given here. FITC′ = fluorescein isothiocyanate; pS = N[C@@H](COP(=O)(O)O)C(=O)O; βAla = NCCC(=O)O

B1: 14-3-3σ with truncated C-terminus ΔC232-248 (domain or fragment, human, UniProt P31947 1-231, looked up)
chain: MERASLIQKAKLAEQAERYEDMAAFMKGAVEKGEELSCEERNLLSVAYKNVVGGQRAAWRVLSSIEQKSNEEGSEEKGPEVREYREKVETELQGVCDTVLGLLDSHLIKEAGDAESRVFYLKMKGDYYRYLAEVATGDDKKRIIDSARSAYQEAMDISKKEMPPTNPIRLGLALNFSVFHYEIANSPEEAISLAKTTFDEAMADLHTLSEDSYKDSTLIMQLLRDNLTLWT

Legend:
[1] = target: FITC-labeled IκBαpS63 peptide (phosphorylated 14-3-3 binding motif of IκBα) (human) (UniProt P25963); assay: fluorescence polarisation
[2] = target: T1, W59F and W228F double mutation of 14-3-3ζ (human, UniProt P63104 1-245, W59F | W228F); assay: fluorescence polarisation
T1 sequence (looked up): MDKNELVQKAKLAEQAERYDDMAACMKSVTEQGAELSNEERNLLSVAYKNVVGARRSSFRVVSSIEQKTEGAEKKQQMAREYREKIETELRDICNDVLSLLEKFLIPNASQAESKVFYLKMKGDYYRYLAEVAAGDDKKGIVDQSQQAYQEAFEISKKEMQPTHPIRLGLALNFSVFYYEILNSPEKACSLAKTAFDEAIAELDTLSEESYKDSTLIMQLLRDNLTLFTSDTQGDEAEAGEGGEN

[3] = target: B1; assay: crystal structure
[4] = target: the molecule itself; assay: crystal structure

Work on “14-3-3ζ (from UniProt P63104 1-245) (natural protein)” yielded a Kd [1] of 380 µM.

In the case of {FITC′-βAla}-QEVPRG[pS]EPWKQQ-NH2 (peptide, UniProt P25963 57-69, looked up) [FITC-labeled IκBαpS63 peptide (phosphorylated 14-3-3 binding motif of IκBα)], the Kd [2] is reported as roughly 415 µM.

Ac-QEVPRG[pS]EPWKQQ-NH2 (peptide, UniProt P25963 57-69, looked up) [unlabeled (N-terminally acetylated) IκBαpS63 peptide]: binds [3].

B1: binds [4].
